Measured values reported in patent US20040265965A1 (ELAN PHARMACEUTICALS, published 2004).
Non-standard residues stand in square brackets, D forms with d. No end group written: not given here. Sta = CC(C)C[C@H](N)[C@@H](O)CC(=O)O

Assays:
[1] = biological target: T1, Δ2,3-452H soluble BACE (S174I, N223A, histidine tag), baculovirus/Sf9 (human, UniProt P56817 22-452); experiment: affinity chromatography on the immobilised inhibitor peptide
T1 construct: not shown: histidine tag

[2] = biological target: T2, Δ2,3-452H,NINL soluble BACE (S174I, N223A, R42L43P44R45 changed to NINL, histidine tag), baculovirus/Sf9 (human, UniProt P56817 46-452); experiment: as above
T2 construct: not shown: histidine tag
T2 sequence (P56817 other isoform, or with tags, fused parts or gaps S174I N223A S174I N223A): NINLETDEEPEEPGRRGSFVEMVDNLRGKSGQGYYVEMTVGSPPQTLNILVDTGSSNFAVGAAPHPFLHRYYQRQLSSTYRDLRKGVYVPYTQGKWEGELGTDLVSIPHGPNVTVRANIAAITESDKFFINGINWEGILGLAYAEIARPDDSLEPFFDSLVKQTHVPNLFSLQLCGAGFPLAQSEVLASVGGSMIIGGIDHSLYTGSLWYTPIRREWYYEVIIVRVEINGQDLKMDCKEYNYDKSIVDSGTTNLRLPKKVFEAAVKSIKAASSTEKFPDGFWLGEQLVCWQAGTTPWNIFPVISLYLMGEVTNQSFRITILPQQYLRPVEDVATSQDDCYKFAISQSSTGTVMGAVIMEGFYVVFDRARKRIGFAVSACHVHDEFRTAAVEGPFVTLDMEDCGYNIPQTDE

T1 sequence (P56817 22-452 S174I/N223A): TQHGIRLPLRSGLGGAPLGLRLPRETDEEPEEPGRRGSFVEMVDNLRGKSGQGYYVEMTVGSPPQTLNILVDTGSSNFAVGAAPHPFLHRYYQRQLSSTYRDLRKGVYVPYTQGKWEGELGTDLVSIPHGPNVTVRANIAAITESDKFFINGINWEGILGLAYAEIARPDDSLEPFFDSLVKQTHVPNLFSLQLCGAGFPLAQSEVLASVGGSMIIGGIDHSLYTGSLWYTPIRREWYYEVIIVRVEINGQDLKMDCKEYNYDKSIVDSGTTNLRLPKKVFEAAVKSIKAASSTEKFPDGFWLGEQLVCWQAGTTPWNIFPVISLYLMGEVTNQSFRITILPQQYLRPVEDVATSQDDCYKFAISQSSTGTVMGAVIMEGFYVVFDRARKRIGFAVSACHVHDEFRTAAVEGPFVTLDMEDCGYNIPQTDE

KTEEISEVN[Sta]VAEF (also called P10-P4′staV; P10-4′staD→V) [P10-P4′staD→V inhibitor peptide, KTEEISEVN[sta]VAEF]
binding result [1]: binds | binding result [2]: binds
